Source: publication PMC7386920, “Evolution of a plant gene cluster in Solanaceae and emergence of metabolic diversity” (eLife, 2020)

What was measured:
Test in all cases: purified protein
Conditions in all cases: fatty acid varied 0-500 uM, 5 mM ATP, 0.5 mM CoA, 10 mM MgCl2, 1 mM NADH, pH 7.5, 30 C
purified protein [1] = substrate: CCCCCCCC(=O)O
purified protein [2] = substrate: CCCCCCCCCC(=O)O; type: biochemical, Solanum lycopersicum
purified protein [3] = substrate: CCCCCCC/C=C/C(=O)O; type: biochemical, Solanum lycopersicum
purified protein [4] = substrate: CC(C)CCCCCCC(=O)O; type: biochemical, Solanum lycopersicum
purified protein [5] = substrate: CCCCCCCCCCCC(=O)O; type: biochemical, Solanum lycopersicum
purified protein [6] = substrate: CCCCCC(=O)O; type: biochemical, Solanum lycopersicum

B1: Sl-AACS1 (Solanum lycopersicum) (protein)
chain: MNKFFKTSNIALRFFNGSVQLPAPTHRVRQLCQLAGSIESTDESRKLLEGVVTSPANYVPLTPISYLERAADVFGDRTSVVFGSSVKYTWEETHSRCLKLASALIQLGISRGDVVATLAPNVPAMQELHFAVPMAGAVLCTLNTRLDSSMVAYLLKHSETKMIFVDQQFLQIAQQALSLLSKDKTIKPPILILIPESNDSSPPVSNIHEYENLLSSGSSNFTIRWPKSEFDPISINYTSGTTSSPKGVVYNHRGAYLNSISAFLCHGMALMPTYLWTLPMFHCNGWCMNWGVAALGGTNVCLRHVSAKDIFESISVNKVTHMSAAPIVLSMMANASPNDRKPLLHKVEIMTGGSPPPPQILSKMEQLGFGVSHGYGLTETYSGATTCLWKPEWDSLPLEERAALKSRQGVKVLCIERVDVRDPETMENVPADGKSIGEIVCRGNTVMSGYLKDVKSTEEAFKGGWFHTGDVAVKHPDGYIEIKDRLKDIIISGGENISTLEVEGVLHSHPAVVEAAVVARPDDHWGQTPCAFVKLKEGSEEITSDEIIKYCRDHLPHYMVPRAVVFQDLPTTSTGKVQKFILREKAKALASLFNTDRKV
notes: full-length ORF in pET28b, His-tagged (tag removal not mentioned), E. coli BL21 Rosetta, Ni-NTA purified
- Km (purified protein [1]): 145.9 ± 10.4 µM
- kcat (purified protein [1]): 0.22 ± 0.0067 s⁻¹
- Km (purified protein [2]): 71.8 ± 9.6 µM
- kcat (purified protein [2]): 0.0933 ± 0.0033 s⁻¹
- Km (purified protein [3]): 36.4 ± 4.5 µM
- kcat (purified protein [3]): 0.0983 ± 0.0033 s⁻¹
- Km (purified protein [4]): 82.1 ± 10.3 µM
- kcat (purified protein [4]): 0.227 ± 0.01 s⁻¹
- Km (purified protein [5]): 68.1 ± 15.8 µM
- kcat (purified protein [5]): 0.07 ± 0.005 s⁻¹
- Km (purified protein [6]): 214.8 ± 40 µM
- kcat (purified protein [6]): 0.23 ± 0.02 s⁻¹
